B1: anti-EREG mouse monoclonal antibody EP20 (B2#30) (antibody, mouse IgG1, V domains shown)
VH: QVQLQQSGAELVRPGVSVKISCKGSGYTFTVYSLHWVKQSHARSLEWIGVISTYYGDAIYNQKFKGKATMTVDKSSSTAYMELARLTSEDSAIYYCAREGNGNPLDYWGQGTTLTVSS
VL: QIVLTQSPAIMSASLGERVTMTCTASSSVSSSYLHWYQQKPGSSPKLWIYSTSNLASGVPARFSGSGSGTSYSLTITNMEAEDSATYYCHQYHRSPLTFGAGTKLELK
notes: Mouse IgG1/κ hybridoma antibody
B2: anti-EREG mouse monoclonal antibody EP03 (C7) (antibody, mouse IgG1, V domains shown)
VH: QVQLQQPGAELVKPGASVKLSCKASGYTFTNYWMNWVKQRPGRGLEWIGRIHPSDSETHYNQKFKNKATLTVDKSSSTAYIQLSSLTSEDSAVYYCANLYYYTMDYWGQGTSVTVSS
VL: DIQMTQSPSSLSASLGGKVTITCKASQDINKNIAWHQHKPGKGPRLLIWYTSTLQPGIPSRFSGSGSGRDYSFSISNLEPEDIATYYCLQYDNLPYTFGSGTKLEIK
notes: as for B1
B3: anti-EREG mouse monoclonal antibody EP24 (B3#8) (antibody, mouse IgG1, V domains shown)
VH: QVQLKESGPGLVAPSQSLSITCTVSGFSLSSYGVHWVRQPPGKGLEWLGVIWRDGSTTYNSALKSRLSISKDGSKSQVFLKMNSLQTDDTAMYYCARNWNGLMDYWGQGTSVTVSS
VL: DIQMTQTTSSLSASLGDRVTISCRASQDISYYLNWYQQRPDGTVKLLIYYTSRLHSGVPSRFSGSGSGTESSLTISNLEQEDIATYFCQQGHTVPWTFGGGTKLEIK
notes: as for B1
B4: anti-EREG mouse monoclonal antibody EP27 (B3#18) (antibody, mouse IgG2b, V domains shown)
VH: EDQLQQSGAELVKPGASVKLSCTASGFNIKDTYIQWVKLRPEQGLEWIGRIDPLNGNTKYVPKFQGKATITADTSSNTAYLQLSSLTSEDTAVYYCVRSGTLFDFWGQGTTLTVSS
VL: DIQMTQSPSSLSASLGGKVTITCKASQDIHKYIAWYQHKPGKGPRLLIQYTSTLQPGIPSRFSGSGSGRDYSFSISNLEPEDIATYYCLQYDNLRTFGGGTKLEIK
notes: also called B3#18_IgG2b
B5: anti-EREG mouse monoclonal antibody EP08 (#15) (antibody, mouse IgG1, V domains shown)
VH: QVQLQQPGAELVKPGASVKLSCKASGYTFTSYWMHWVKQRPGQGLEWIGEINPYNGGTNYNEKFKSKATLTVDKSSSTAYMQLSSLTSEDSAVYYCTIWKLGTYWGQGTLVTVSA
VL: DIQMTQSPSSLSASLGERVSLTCRASQEISGYLSWLQQKPDGTIKRLIYAASTLDSGVPKRFSGSRSGSDYSLTISSLESEDFADYYCLQYASYPRTFGGGTKLEIK
notes: as for B1
B6: anti-EREG mouse monoclonal antibody EP29 (B3#41) (antibody, mouse IgG1, V domains shown)
VH: EVQLQQSGTVLARPGASVKMSCKASGYTFTSYWMHWVKQRPGQGLEWIGAIYPGNSDSYNQKFKGKAKLTAVTSTSTAYMELSSLTNEDSAVYYCTSVMAYWGQGTSVTVSS
VL: DIQMTQSPSSLSASLGERVSLTCRASQDIGNSLNWLQQEPDGTIKRLIYATSNLDSGVSKRFSGSRSGSDYSLTISSLESEDFVDYYCLQYASSPWTFGGGTKLEIK
notes: as for B1

target: T1, soluble human EREG fragment (EGF domain; 63Val to 108Leu) comprising a mature structure, R&D Systems cat. no. … (human, UniProt O14944 63-108); assay: ELISA, EREG fragment immobilized on immuno plate
T1 construct: Bought protein; also called soluble EREG; recombinant human EREG
T1 sequence (O14944 63-108): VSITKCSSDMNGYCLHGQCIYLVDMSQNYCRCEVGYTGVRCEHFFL
Protocol: (§1) The binding towards partial fragments of the extracellular domain of human EREG was analyzed to determine antibody epitope. The N-terminal partial sequence fragment of ²⁹Ala to ⁶⁹Ser of human EREG of SEQ ID NO: 21 was expressed as a GST fusion protein and purified to homogeneity. The sequence of the obtained recombinant protein is shown in SEQ ID NO: 172. A soluble human EREG fragment (EGF domain; corresponding to ⁶³Val to ¹⁰⁸Leu of SEQ ID NO: 21) comprising a mature structure was purchased from R&D Systems (cat. no. 1195-EP/CF). Fragments of the EREG protein were immobilized onto an immuno plate, and the binding of the antibodies was examined by ELISA. Most of the antibodies bound to the soluble EREG fragment that comprises the EGF domain (indicated as “ereg” in Table 3). EP25 and EP32 bound to the N-terminal fragment (“Nterm”). All of the isolated antibodies bound to either one of the peptide fragments, and none of the antibodies recognized the sequence beyond residue 109.

Binding result, binds:
B1
B2
B3
B4
B5

target: T1, soluble human EREG fragment (EGF …); assay: ELISA, EREG fragment immobilized on immuno plate; note: binds, but with low reactivity
Protocol: as §1

Binding result, binds:
B6
